Laboratory results: patent publication US20170066831A1 (Janssen / Centocor, published 2017)

T1: human ST2L extracellular domain with C-terminal His6 tag (human, UniProt Q01638 19-328)
T1 construct: also called huST2L-ECD; ST2L-ECD
T1 sequence: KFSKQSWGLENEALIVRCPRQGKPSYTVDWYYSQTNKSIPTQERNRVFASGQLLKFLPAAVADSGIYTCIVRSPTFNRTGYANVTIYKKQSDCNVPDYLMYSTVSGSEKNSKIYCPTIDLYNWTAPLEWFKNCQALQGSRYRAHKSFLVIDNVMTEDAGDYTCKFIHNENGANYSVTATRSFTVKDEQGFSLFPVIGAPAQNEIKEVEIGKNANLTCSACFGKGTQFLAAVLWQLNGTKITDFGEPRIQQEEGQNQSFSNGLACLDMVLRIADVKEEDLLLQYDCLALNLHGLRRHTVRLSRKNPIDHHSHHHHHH

T2: cynomolgus (Macaca fascicularis) ST2L extracellular domain with C-terminal His6 tag (Macaca fascicularis (cynomolgus), UniProt Q01638 19-321 (human entry))
T2 construct: also called cyno ST2L-ECD; cynoST2L-ECD
T2 chain: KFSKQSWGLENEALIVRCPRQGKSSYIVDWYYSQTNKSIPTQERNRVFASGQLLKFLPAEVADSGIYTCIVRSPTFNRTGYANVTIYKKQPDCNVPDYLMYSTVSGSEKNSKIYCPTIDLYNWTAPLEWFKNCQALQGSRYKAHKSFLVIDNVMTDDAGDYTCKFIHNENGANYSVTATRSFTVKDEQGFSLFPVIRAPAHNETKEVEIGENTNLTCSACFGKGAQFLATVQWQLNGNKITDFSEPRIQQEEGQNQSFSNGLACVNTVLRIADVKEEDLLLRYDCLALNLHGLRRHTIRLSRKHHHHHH

T3: human ST2L, full length, on cells (human, UniProt Q01638 19-556)
T3 sequence: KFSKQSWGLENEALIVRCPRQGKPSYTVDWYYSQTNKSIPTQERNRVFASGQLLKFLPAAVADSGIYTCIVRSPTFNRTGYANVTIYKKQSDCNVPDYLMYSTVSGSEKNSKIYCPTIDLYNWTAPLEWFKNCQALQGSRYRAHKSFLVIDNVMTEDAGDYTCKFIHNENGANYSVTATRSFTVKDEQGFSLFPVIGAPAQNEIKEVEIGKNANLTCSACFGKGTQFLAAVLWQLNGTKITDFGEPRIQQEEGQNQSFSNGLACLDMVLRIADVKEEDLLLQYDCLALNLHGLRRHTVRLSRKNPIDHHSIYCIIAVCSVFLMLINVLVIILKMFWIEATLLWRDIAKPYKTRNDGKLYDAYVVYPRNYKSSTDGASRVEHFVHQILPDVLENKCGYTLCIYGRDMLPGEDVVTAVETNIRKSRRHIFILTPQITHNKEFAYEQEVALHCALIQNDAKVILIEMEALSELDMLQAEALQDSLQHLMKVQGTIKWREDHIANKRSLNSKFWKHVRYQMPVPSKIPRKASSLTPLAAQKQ

B1: STLM200 (antibody, V domains shown)
VH: EVQLVQSGAEVKKPGATVKISCKVSAFNIKDDYMHWVQQAPGKGLEWMGRIDPAIGNTEYAEKFQGRVTITADTSTDTAYMELSSLRSEDTAVYYCATGDFYAMDYWGQGTLVTVSS
VL: DIQLTQSPSFLSASVGDRVTITCITNTDIDDVIHWYQQKPGKAPKLLIYEGNTLRPGVPSRFSGSGSGTEFTLTISSLQPEDFATYYCLQSDNMLTFGQGTKLEIK
notes: C2494 HFA mAb: VH STLH194 + VL STLL277 (L8)
B2: STLM199 (antibody, V domains shown)
VH: EVQLVQSGAEVKKPGATVKISCKVSAFNIKDDYMHWVQQAPGKGLEWMGRIDPAIGNTEYAEKFQGRVTITADTSTDTAYMELSSLRSEDTAVYYCATGDFYAMDYWGQGTLVTVSS
VL: EIVMTQSPATLSVSPGERATLSCITNTDIDDVIHWYQQKPGQAPRLLIYEGNTLRPGIPARFSGSGSGTEFTLTISSLQSEDFAVYYCLQSDNMLTFGQGTKLEIK
notes: C2494 HFA mAb: VH STLH194 + VL STLL278 (L2)
B3: STLM205 (antibody, V domains shown)
VH: EVQLVQSGAEVKKPGATVKISCKVSAFNIKDDYMHWVQQAPGKGLEWMGRIDPAIGNTEYAEKFQGRVTITADTSTDTAYMELSSLRSEDTAVYYCATGDFYAMDYWGQGTLVTVSS
VL: DIQMTQSPSSLSASVGDRVTITCITNTDIDDVIHWYQQKPGKAPKLLIYEGNTLRPGVPSRFSGSGSGTDFTFTISSLQPEDIATYYCLQSDNMLTFGQGTKLEIK
notes: C2494 HFA mAb: VH STLH194 + VL STLL272 (O18)
B4: STLM201 (antibody, V domains shown)
VH: EVQLVQSGAEVKKPGATVKISCKVSAFNIKDDYMHWVQQAPGKGLEWMGRIDPAIGNTEYAEKFQGRVTITADTSTDTAYMELSSLRSEDTAVYYCATGDFYAMDYWGQGTLVTVSS
VL: DIQMTQSPSTLSASVGDRVTITCITNTDIDDVIHWYQQKPGKAPKLLIYEGNTLRPGVPSRFSGSGSGTEFTLTISSLQPDDFATYYCLQSDNMLTFGQGTKLEIK
notes: C2494 HFA mAb: VH STLH194 + VL STLL276 (L12)
B5: STLM202 (antibody, V domains shown)
VH: EVQLVQSGAEVKKPGATVKISCKVSAFNIKDDYMHWVQQAPGKGLEWMGRIDPAIGNTEYAEKFQGRVTITADTSTDTAYMELSSLRSEDTAVYYCATGDFYAMDYWGQGTLVTVSS
VL: DIQMTQSPSSVSASVGDRVTITCITNTDIDDVIHWYQQKPGKAPKLLIYEGNTLRPGVPSRFSGSGSGTDFTLTISSLQPEDFATYYCLQSDNMLTFGQGTKLEIK
notes: C2494 HFA mAb: VH STLH194 + VL STLL275 (L5)
B6: STLM204 (antibody, V domains shown)
VH: EVQLVQSGAEVKKPGATVKISCKVSAFNIKDDYMHWVQQAPGKGLEWMGRIDPAIGNTEYAEKFQGRVTITADTSTDTAYMELSSLRSEDTAVYYCATGDFYAMDYWGQGTLVTVSS
VL: DIQMTQSPSSLSASVGDRVTITCITNTDIDDVIHWYQQKPGKVPKLLIYEGNTLRPGVPSRFSGSGSGTDFTLTISSLQPEDVATYYCLQSDNMLTFGQGTKLEIK
notes: C2494 HFA mAb: VH STLH194 + VL STLL273 (A20)
B7: STLM220 (antibody, V domains shown)
VH: EVQLLESGGGLVQPGGSLRLSCAASGFTFSFYDMFWVRQAPGKGLEWVSDIRGEGGGTAYADSVKGRFTISRDNSKNTLYLQMNSLRAEDTAVYYCARDPWSTEGSFFVLDYWGQGTLVTVSS
VL: EIVLTQSPATLSLSPGERATLSCRASQSVDDDLAWYQQKPGQAPRLLIYDASNRATGIPARFSGSGSGTDFTLTISSLEPEDFAVYYCQQYIGAPITFGQGTKVEIK
notes: frameworks VH3-23 / Vk-L6
B8: STLM107 (antibody, V domains shown)
VH: EVQLLESGGGLVQPGGSLRLSCAASGFTFSDYAMFWVRQAPGKGLEWVSAIEGEGGETNYADSVKGRFTISRDNSKNTLYLQMNSLRAEDTAVYYCARDPWSTEGSFFVLDYWGQGTLVTVSS
VL: EIVLTQSPATLSLSPGERATLSCRASQSVDDDLAWYQQKPGQAPRLLIYDASNRATGIPARFSGSGSGTDFTLTISSLEPEDFAVYYCQQYIGAPITFGQGTKVEIK
notes: frameworks VH3-23 / Vk-L6
B9: STLM103 (antibody, V domains shown)
VH: EVQLLESGGGLVQPGGSLRLSCAASGFTFSFYDMFWVRQAPGKGLEWVSSIRGEGGRTDYADSVKGRFTISRDNSKNTLYLQMNSLRAEDTAVYYCARDPWSTEGSFFVLDYWGQGTLVTVSS
VL: EIVLTQSPATLSLSPGERATLSCRASQSVDDDLAWYQQKPGQAPRLLIYDASNRATGIPARFSGSGSGTDFTLTISSLEPEDFAVYYCQQYIGAPITFGQGTKVEIK
notes: frameworks VH3-23 / Vk-L6

Key:
[1] = biological target: T1, human ST2L extracellular domain with …; assay: ProteOn SPR, mAb captured, ST2L-ECD in solution
Description: (§1) The affinities were analyzed by ProteOn. The experiments were performed at 25° C. using ProteOn's PBS-T-E buffer (PBS, 0.005% P20 and 3 mM EDTA) as running buffer. […] Mab capture was followed by injection of ST2L-ECD from 0.024-15 nM (5-fold dilutions) for 4 min (200 μL at 50 μL/min). The dissociation was monitored for 30 minutes for all reaction. Regeneration was performed using two 15 sec pulses of 10 mM glycine pH1.5. The data was fitted to a 1:1 with baseline drift model.
(§2) Association rates for the samples are fast, the langmuir with mass transfer model was used for curve fitting and estimation of Affinity. All of the samples had faster off rates than the parental clone and control Mab. The difference in off rate was the primary contributor to the lower affinity of the HFA variants when compared to the parent antibody.

[2] = biological target: T2, cynomolgus (Macaca fascicularis) ST2L …; assay: ProteOn SPR, mAb captured, ST2L-ECD in solution
Description: as §1, §2

[3] = biological target: T3, human ST2L, full length, on cells; assay: cell-based or functional assay
[4] = biological target: T1, human ST2L extracellular domain with …; assay: SPR, mAb captured, ST2L-ECD in solution
[5] = biological target: T2, cynomolgus (Macaca fascicularis) ST2L …; assay: SPR, mAb captured, ST2L-ECD in solution
[6] = biological target: T1, human ST2L extracellular domain with …; assay: RLB ELISA: biotinylated IL-33 on coated huST2L-ECD, antibody titrated
Description: 96-well plate was coated with 50 μl of 4 μg/ml human ST2L-ECD (amino acids 19-328 of SEQ ID NO: 1) or 2 μg/ml cyno ST2L-ECD (amino acids 19-321 of SEQ ID NO: 2) having C-terminal His₆ tag in bicarbonate buffer at 4° C. for 16 hrs. All subsequent steps were performed at room temperature. Plate was blocked with 200 μl blocking buffer, and was washed 3 times with 300 μl of wash buffer containing PBS+0.05% Tween. 30 μl of various dilutions of anti-ST2L mAbs were added to the wells and incubated for 1 hour. For human receptor-ligand binding assay 20 μl of biotinylated human IL-33 (residues 112-270 of SEQ ID NO: 3) was added at 100 ng/ml final concentration and incubated for 30 minutes. For cyno receptor-ligand binding assay 20 μl of biotinylated cyno IL-33 (residues 112-269 of SEQ ID NO: 4) was added at 200 ng/ml final concentration and incubated for 30 minutes. The plate was washed 3 times with 300 μl of wash buffer. 50 μl of 0.2 μg/ml Streptavidin-HRP (Jackson Immunoresearch) was added and incubated for 30 min. The plate was washed 3 times with 300 μl of wash buffer containing PBS+0.05% Tween. 50 μl of TMB substrate (EMD Biosciences) was added to each well. Reaction was stopped by the addition of 100 μl of 0.2N Sulfuric Acid. OD450 were measured using Envision plate reader (Perkin Elmer).

Binder	Kd [1] [nM]	koff [1] [s⁻¹]	kon [1] [M⁻¹ s⁻¹]	Kd [2] [nM]	koff [2] [s⁻¹]	kon [2] [M⁻¹ s⁻¹]	RGA IC50 [3] [µg/mL]	Kd [4] [nM]	koff [4] [s⁻¹]	kon [4] [M⁻¹ s⁻¹]	Kd [5] [nM]	koff [5] [s⁻¹]	kon [5] [M⁻¹ s⁻¹]	IC50 [6] [µg/mL]
B1	0.0608	0.00143	2.35e+07	0.134	0.011	8.23e+07	–	–	–	–	–	–	–	–
B2	0.0414	0.000897	2.17e+07	0.0845	0.00657	7.78e+07	–	–	–	–	–	–	–	–
B3	0.0401	0.000695	1.73e+07	0.1	0.00404	4.04e+07	–	–	–	–	–	–	–	–
B4	0.0484	0.000852	1.76e+07	0.116	0.0041	3.55e+07	–	–	–	–	–	–	–	–
B5	0.0529	0.00119	2.24e+07	0.134	0.0104	7.75e+07	–	–	–	–	–	–	–	–
B6	0.0813	0.00241	2.97e+07	0.205	0.0205	1e+08	–	–	–	–	–	–	–	–
B7	–	–	–	–	–	–	0.6	0.016	9.53e-05	5.8e+06	0.009	0.00014	1.6e+07	0.39
B8	–	–	–	–	–	–	1.1	0.012	0.000341	2.9e+07	0.007	0.00065	1e+08	0.44
B9	–	–	–	–	–	–	1.92	0.041	0.000163	3.97e+06	0.031	0.000202	6.42e+06	0.47
